For one experiment, the system named is LMP2. Put plainly: LMP2 expression in splenocytes of mice treated i.m. with Tat (Western blot). Type of experiment: in vivo. Conditions: Balb/c mice, 1 μg i.m., 3 consecutive treatments. An excerpt: Equal amounts of proteins were loaded on a 12% SDS-PAGE gel and electroblotted onto Protran nitrocellulose membranes (Schleicher & Schuell, Keene, Hampshire, USA). The blots were probed with antibodies specific for α2, LMP2, LMP7, MECL1, and PA28α subunits (Affinity, Exeter, UK) and developed by enhanced chemiluminescence (ECL, Amersham Pharmacia Biotech, Uppsala, SW).
Animal use was according to national and institutional guidelines. Seven-to-eight week old female Balb/c mice (Nossan, Milan, Italy) were injected with native monomeric biologically active Tat protein (1 μg) resuspended in degassed sterile PBS. Control mice were injected with oxidised Tat (1 μg) or with PBS alone. Samples (100 μl) were given by intramuscular (i.m.) injections in the quadriceps muscles of the posterior legs. Each experimental group consisted of three mice, and the experiment was repeated twice. Mice were boosted at days 11 and 20 after the first injection. Seven days after the last injection, animals were anaesthetised intraperitoneally (i.p.) with 100 μl of isotonic solution containing 1 mg of Inoketan (Virbac, Milan, Italy), and 200 μg Rompun (Bayer, Milan, Italy) and sacrificed to collect spleens. Mononuclear cells from individual spleens were purified using cells strainers, resuspended in PBS containing 20 mM EDTA, and treated with a red blood cells lysis buffer for 4 minutes at room temperature. […]
(In general: In western blotting, separated proteins are transferred to a membrane and probed.)

Experiment [1] has as its system proteasome subunits (α2, LMP2, LMP7, MECL1) in Jurkat cells. Briefly: Western blot of proteasome subunits in Jurkat cells expressing or treated with Tat, Tat mutants or Tat peptides. Type of experiment: cell-based, human. Conditions: Jurkat cells expressing mutant. The protocol:
Jurkat T cells expressing Tat or mutated Tat (referred to as Tat22, wherein a Cys at position 22 is mutated) have previously been described (1). Cells were cultured in a medium supplemented with 800 μg/ml neomycin (Sigma, St. Louise, […].).
Cells were lysed with glass beads as previously described (4). Supernatants were ultracentrifuged for 1 h at 100,000 g and loaded into an affinity column containing a matrix derivatised with the MCP21 mAb specific for the α2 subunit of the proteasome (Affinity, Exeter, UK). Proteasomes were eluted with 25 mM Tris-HCl pH 7.5 containing 2 M NaCl, and 0.5 ml fractions were collected. Homogeneity of the eluted material was confirmed by analysis of an aliquot by SDS 12% PAGE and Coomassie blue staining of the gel. Fractions containing proteasomes were combined and dialysed against 25 mM Tris-HCl pH 7.5. Protein concentration was determined using the BCA method (Pierce Chemical, Rockford, Ill.).
Equal amounts of proteins, or equal amounts of purified proteasomes, were loaded on a 12% SDS-PAGE and electro-blotted onto Protran nitrocellulose membranes (Schleicher & Schuell, Keene, Hampshire, USA). Blots were probed with Abs specific for α2, LMP2 LMP7, MECL1, and PA28α subunits (Affinity), and developed by enhanced chemi-luminescence (ECL, Amersham Pharmacia Biotech, Uppsala, SW).

The test system of another experiment is HIV-1 LTR. The conditions noted are these: in contrast to wild-type Tat, cited from earlier work.

We go through two molecules from US20090252754A1, “Vaccines containing the hiv tat protein as an adjuvant for the enhancement of cytotoxic t-cell responses” (priority 2003, published 2009).

Read-outs that look alike come from different tables or passages of the source.

B1: oxidised Tat: oxidised form of the HIV-1 Tat protein, used as control (protein, UniProt P04608 1-86, looked up)
Protein Tat: MEPVDPRLEPWKHPGSQPKTACTNCYCKKCCFHCQVCFITKALGISYGRKKRRQRRRAHQNSQTHQASLSKQPTSQPRGDPTGPKE
modifications: oxidised
notes: oxidised form of the HIV-1 Tat protein, used as control
Take B1: the “LMP2 expression in splenocytes” value in the experiment on LMP2 is recorded as “no effect”.

B2: Tat22: mutated HIV-1 Tat carrying glycine instead of cysteine 22 (SEQ ID NO 286) (protein)
chain: MEPVDPRLEPWKHPGSQPKTAGTNCYCKKCCFHCQVCFITKALGISYGRKKRRQRRRPPQGSQTHQVSLSKQPTSQSRGDPTGPKE
As to B2, in experiment [1], the “subunit composition of proteasomes” value is recorded as “modifies the subunit composition of proteasomes”. For the same molecule, in the experiment on HIV-1 LTR, the “reactivation of latent infection” value is “do not induce” and the “transactivation of the HIV-1 LTR” value is on record as “no effect”. In the experiment with HIV-1 LTR (listed as Tatcys22), the “reactivation of latent infection” value is on record as “does not induce”.
